This assay deals with antigen- and TRAIL receptor-expressing Colo205 cells. The assay can be described thus: flow cytometry, Colo205 cells.

B1: scFvhu225-EHD2-scTRAIL3-… (protein)
chain: DYKDDDDKGGGGSGTEVQLVESGGGLVQPGGSLRLSCAASGFSLTNYGVHWVRQAPGKGLEWLGVIWSGGNTDYNTPFTSRFTISRDNSKNTLYLQMNSLRAEDTAVYYCARALTYYDYEFAYWGQGTTVTVSSGGGGSGGGGSGGGGSDIQLTQSPSFLSASVGDRVTITCRASQSIGTNIHWYQQKPGKAPKLLIKYASESISGVPSRFSGSGSGTEFTLTISSLQPEDFATYYCQQNNNWPTTFGAGTKLEIKRAAAGGSGGDFTPPTVKILQSSCDGGGHFPPTIQLLCLVSGYTPGTINITWLEDGQVMDVDLSTASTTQEGELASTQSELTLSQKHWLSDRTYTCQVTYQGHTFEDSTKKCADSNGGSGGASSGGGPQRVAAHITGTRGRSNTLSSPNSKNEKALGRKINSWESSRSGHSFLSNLHLRNGELVIHEKGFYYIYSQTYFRFQEEIKENTKNDKQMVQYIYKYTSYPDPILLMKSARNSCWSKDAEYGLYSIYQGGIFELKENDRIFVSVTNEHLIDMDHEASFFGAFLVGGGPQRVAAHITGTRGRSNTLSSPNSKNEKALGRKINSWESSRSGHSFLSNLHLRNGELVIHEKGFYYIYSQTYFRFQEEIKENTKNDKQMVQYIYKYTSYPDPILLMKSARNSCWSKDAEYGLYSIYQGGIFELKENDRIFVSVTNEHLIDMDHEASFFGAFLVGGGPQRVAAHITGTRGRSNTLSSPNSKNEKALGRKINSWESSRSGHSFLSNLHLRNGELVIHEKGFYYIYSQTYFRFQEEIKENTKNDKQMVQYIYKYTSYPDPILLMKSARNSCWSKDAEYGLYSIYQGGIFELKENDRIFVSVTNEHLIDMDHEASFFGAFLVG
Broadly, the EC50 is the midpoint of the concentration-response curve. A higher EC50 goes with a need for much substance. Molecule B1 returned an EC50 of 0.00058 µM.

B2: dsDb3M6-scTRAIL3-… (protein)
chain: DYKDDDDKGGGGSGTEVQLLESGGGLVQPGGSLRLSCAASGFTFSHYVMAWVRQAPGKCLEWVSSISSSGGWTLYADSVKGRFTISRDNSKNTLYLQMNSLRAEDTAVYYCTRGLKMATIFDYWGQGTLVTVSSGGGGSQSALTQPASVSGSPGQSITISCTGTSSDVGSYNVVSWYQQHPGKAPKLIIYEVSQRPSGVSNRFSGSKSGNTASLTISGLQTEDEADYYCSSYAGSSIFVIFGCGTKVTVLAAAGGSGGGPQRVAAHITGTRGRSNTLSSPNSKNEKALGRKINSWESSRSGHSFLSNLHLRNGELVIHEKGFYYIYSQTYFRFQEEIKENTKNDKQMVQYIYKYTSYPDPILLMKSARNSCWSKDAEYGLYSIYQGGIFELKENDRIFVSVTNEHLIDMDHEASFFGAFLVGGGPQRVAAHITGTRGRSNTLSSPNSKNEKALGRKINSWESSRSGHSFLSNLHLRNGELVIHEKGFYYIYSQTYFRFQEEIKENTKNDKQMVQYIYKYTSYPDPILLMKSARNSCWSKDAEYGLYSIYQGGIFELKENDRIFVSVTNEHLIDMDHEASFFGAFLVGGGPQRVAAHITGTRGRSNTLSSPNSKNEKALGRKINSWESSRSGHSFLSNLHLRNGELVIHEKGFYYIYSQTYFRFQEEIKENTKNDKQMVQYIYKYTSYPDPILLMKSARNSCWSKDAEYGLYSIYQGGIFELKENDRIFVSVTNEHLIDMDHEASFFGAFLVG
B2 came in with an EC50 of 0.0325 µM.
